{"source": "paper PMC3762337", "target": "Dyn1_(387kD) (S. cerevisiae) (UniProt P36022)", "assay": "single-molecule GFP fluorescence intensity; GFP-tagged motors on surface-immobilised Cy5 MTs, with ATP or apyrase, 5 min; intensities of GFP spots compared with GST-Dyn1 331kD", "data": [{"substance": "Dyn1_(387kD), P36022 732-4092", "values": [{"measurement": "stoichiometry N", "value": 2}]}]}
